In the supplement of paper PMC10065799, “High-throughput profiling of sequence recognition by tyrosine kinases and SH2 domains using bacterial peptide display” (eLife, 2023):

How the values were obtained:
Grb2 SH2 = Grb2 SH2 (UniProt P62993); assay: SH2 binding enrichment of the phosphorylated peptide, bacterial display (enrichment ratio); higher = better substrate or ligand; peptides without Tyr show the background
SHP2-C SH2 = assay: as above
c-Src SH2 = assay: as above
Fyn = Fyn (UniProt P06241); assay: phosphorylation enrichment, bacterial display (enrichment ratio); higher = better substrate or ligand; peptides without Tyr show the background
c-Abl (mouse) = assay: as above
FGFR3 = FGFR3 (UniProt P22607); assay: as above
Sequence of FGFR3 (P22607 whole entry, looked up): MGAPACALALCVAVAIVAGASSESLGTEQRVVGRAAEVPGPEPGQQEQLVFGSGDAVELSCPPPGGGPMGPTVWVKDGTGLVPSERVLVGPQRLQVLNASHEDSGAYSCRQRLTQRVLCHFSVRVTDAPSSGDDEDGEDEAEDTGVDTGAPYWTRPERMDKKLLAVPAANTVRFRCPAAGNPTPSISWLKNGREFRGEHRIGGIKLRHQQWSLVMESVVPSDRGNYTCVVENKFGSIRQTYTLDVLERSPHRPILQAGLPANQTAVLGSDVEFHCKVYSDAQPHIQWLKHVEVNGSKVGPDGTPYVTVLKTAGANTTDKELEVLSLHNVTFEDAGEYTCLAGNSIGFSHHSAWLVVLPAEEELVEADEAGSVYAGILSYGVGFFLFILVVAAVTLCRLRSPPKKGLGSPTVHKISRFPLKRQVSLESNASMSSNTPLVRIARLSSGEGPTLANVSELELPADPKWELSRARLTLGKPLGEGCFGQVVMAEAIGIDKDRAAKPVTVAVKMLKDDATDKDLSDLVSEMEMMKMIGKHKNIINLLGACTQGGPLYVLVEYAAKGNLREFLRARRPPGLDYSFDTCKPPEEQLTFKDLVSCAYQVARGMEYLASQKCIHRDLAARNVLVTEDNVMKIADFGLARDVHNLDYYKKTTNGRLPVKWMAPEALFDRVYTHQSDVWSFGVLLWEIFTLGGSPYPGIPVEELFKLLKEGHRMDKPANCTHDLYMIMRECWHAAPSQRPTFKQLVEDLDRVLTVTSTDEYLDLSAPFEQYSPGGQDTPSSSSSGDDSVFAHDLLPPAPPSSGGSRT

FGFR1 = FGFR1 (UniProt P11362); assay: as above
Sequence of FGFR1 (P11362 whole entry, looked up): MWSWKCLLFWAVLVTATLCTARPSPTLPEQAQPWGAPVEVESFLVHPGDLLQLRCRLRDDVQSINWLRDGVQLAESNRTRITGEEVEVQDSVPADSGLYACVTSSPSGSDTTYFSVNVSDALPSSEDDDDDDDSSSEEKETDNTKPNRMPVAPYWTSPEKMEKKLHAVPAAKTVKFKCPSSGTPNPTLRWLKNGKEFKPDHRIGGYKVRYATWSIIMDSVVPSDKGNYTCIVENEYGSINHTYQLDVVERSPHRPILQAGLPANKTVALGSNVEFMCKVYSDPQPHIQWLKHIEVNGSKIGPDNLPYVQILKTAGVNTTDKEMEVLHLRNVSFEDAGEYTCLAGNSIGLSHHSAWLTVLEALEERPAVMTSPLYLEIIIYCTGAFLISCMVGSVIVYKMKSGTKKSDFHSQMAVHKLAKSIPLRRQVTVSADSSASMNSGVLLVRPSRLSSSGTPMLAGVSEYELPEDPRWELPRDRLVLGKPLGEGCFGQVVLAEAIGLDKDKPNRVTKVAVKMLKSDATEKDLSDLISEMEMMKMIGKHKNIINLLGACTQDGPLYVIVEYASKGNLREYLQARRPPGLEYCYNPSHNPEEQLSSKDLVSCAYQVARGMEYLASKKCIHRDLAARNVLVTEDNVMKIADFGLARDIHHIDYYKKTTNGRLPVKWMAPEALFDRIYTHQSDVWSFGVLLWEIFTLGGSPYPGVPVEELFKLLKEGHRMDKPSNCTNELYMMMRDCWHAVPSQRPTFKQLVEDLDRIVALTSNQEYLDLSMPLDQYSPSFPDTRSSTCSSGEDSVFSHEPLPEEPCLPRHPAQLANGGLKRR

EPHB2 = EPHB2 (UniProt P29323); assay: as above
Sequence of EPHB2 (P29323 whole entry, looked up): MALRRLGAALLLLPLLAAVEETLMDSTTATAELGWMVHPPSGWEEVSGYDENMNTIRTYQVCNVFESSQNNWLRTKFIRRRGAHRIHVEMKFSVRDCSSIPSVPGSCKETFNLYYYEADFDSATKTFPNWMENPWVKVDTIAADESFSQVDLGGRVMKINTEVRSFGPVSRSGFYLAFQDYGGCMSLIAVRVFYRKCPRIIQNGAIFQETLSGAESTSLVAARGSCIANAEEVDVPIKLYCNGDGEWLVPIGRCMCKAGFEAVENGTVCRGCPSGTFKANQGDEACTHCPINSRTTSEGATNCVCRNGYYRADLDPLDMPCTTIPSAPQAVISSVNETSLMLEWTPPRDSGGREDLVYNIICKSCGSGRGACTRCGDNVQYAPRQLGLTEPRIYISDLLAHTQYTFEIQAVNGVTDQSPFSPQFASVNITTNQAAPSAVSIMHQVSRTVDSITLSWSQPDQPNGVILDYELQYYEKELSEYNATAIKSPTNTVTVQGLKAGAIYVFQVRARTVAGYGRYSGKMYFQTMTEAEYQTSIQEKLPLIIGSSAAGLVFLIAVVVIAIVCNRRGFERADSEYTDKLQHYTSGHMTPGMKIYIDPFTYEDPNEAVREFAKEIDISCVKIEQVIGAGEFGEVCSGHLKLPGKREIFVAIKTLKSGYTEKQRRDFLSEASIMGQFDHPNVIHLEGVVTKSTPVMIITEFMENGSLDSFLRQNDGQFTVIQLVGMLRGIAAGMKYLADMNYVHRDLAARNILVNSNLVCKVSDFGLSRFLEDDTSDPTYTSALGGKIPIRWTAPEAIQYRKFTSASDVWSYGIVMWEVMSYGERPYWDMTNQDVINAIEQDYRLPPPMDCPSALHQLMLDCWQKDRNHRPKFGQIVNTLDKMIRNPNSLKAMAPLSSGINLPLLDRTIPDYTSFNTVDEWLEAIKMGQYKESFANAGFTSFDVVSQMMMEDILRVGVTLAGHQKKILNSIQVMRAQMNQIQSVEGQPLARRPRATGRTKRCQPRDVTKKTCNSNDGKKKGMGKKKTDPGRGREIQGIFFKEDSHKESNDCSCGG

Fer (mouse) = assay: as above
MERTK = MERTK (UniProt Q12866); assay: as above
Fes = Fes (UniProt P07332); assay: as above
c-Src = assay: as above
AncSZ = assay: as above
Hck = Hck (UniProt P08631); assay: as above
EPHB1 = EPHB1 (UniProt P54762); assay: as above
Sequence of EPHB1 (P54762 whole entry, looked up): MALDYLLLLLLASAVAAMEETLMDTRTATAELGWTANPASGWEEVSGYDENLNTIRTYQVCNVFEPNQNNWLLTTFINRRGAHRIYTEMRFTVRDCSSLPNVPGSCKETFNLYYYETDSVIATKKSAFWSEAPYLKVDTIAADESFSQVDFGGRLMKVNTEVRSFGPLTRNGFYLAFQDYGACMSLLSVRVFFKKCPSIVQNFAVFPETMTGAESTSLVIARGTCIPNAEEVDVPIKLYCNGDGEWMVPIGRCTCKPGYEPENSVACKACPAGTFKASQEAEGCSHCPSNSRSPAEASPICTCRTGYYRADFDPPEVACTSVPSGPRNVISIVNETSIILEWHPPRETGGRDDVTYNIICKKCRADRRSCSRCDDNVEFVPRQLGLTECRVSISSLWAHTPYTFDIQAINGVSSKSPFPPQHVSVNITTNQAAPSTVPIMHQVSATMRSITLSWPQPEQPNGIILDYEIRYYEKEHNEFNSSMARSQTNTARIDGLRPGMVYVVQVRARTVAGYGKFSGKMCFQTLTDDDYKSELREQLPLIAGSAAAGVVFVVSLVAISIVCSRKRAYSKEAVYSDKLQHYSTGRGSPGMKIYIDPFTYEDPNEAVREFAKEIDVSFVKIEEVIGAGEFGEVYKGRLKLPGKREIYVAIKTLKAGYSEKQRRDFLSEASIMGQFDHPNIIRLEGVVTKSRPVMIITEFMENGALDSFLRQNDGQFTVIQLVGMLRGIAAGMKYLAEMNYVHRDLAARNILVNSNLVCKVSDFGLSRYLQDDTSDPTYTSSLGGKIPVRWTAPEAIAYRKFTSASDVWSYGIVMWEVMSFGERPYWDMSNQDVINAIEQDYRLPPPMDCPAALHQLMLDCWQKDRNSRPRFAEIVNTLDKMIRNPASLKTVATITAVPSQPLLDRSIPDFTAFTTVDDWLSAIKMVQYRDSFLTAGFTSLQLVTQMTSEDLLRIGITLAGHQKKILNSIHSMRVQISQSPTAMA

Jak2 = Jak2 (UniProt O60674); assay: as above
Sequence of Jak2 (O60674 whole entry, looked up, the tested form may be a part): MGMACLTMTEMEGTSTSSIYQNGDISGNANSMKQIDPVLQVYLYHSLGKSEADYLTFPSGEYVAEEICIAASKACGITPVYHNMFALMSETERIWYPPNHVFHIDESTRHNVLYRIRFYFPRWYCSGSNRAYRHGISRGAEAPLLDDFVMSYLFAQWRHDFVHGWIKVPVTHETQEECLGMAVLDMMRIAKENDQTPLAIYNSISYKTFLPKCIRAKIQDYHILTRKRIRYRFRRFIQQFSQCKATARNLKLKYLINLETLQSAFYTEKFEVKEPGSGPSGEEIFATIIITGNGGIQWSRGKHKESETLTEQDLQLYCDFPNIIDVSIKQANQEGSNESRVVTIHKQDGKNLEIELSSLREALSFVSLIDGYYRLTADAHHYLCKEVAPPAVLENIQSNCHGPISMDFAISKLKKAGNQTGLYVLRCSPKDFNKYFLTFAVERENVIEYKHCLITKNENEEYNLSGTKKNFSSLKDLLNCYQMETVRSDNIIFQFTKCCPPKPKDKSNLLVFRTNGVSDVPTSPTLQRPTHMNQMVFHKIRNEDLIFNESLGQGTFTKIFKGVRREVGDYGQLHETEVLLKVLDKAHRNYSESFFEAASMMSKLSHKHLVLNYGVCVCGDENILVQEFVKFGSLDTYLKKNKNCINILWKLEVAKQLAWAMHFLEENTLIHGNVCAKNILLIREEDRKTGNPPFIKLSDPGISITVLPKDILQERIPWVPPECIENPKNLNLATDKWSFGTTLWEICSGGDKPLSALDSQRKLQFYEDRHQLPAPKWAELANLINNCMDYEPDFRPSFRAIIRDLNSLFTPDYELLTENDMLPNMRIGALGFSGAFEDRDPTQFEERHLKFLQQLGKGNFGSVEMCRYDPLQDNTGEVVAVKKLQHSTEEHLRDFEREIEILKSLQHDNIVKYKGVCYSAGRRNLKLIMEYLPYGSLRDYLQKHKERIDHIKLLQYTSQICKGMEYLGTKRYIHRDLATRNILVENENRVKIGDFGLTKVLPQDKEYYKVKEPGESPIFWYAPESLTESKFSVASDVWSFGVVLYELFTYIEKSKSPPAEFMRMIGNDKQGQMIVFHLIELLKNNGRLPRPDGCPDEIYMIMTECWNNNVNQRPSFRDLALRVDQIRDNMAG
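For SH2 binding enrichment of the phosphorylated peptide, bacterial display in this document: peptide library displayed on the E. coli surface as eCPX fusions, selected cells deep-sequenced, score is each peptide's frequency after selection divided by its frequency in the input.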
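For phosphorylation enrichment, bacterial display in this document: 11-residue human phosphosite peptides and single-mutation variants displayed on the E. coli surface, counted by deep sequencing, each peptide's frequency after selection divided by its frequency in the unselected input library; frequency after pTyr selection over input frequency; kinase dosed for 20-30% of maximal phosphorylation in three min.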

Sequence of Grb2 SH2 (P62993 whole entry, looked up): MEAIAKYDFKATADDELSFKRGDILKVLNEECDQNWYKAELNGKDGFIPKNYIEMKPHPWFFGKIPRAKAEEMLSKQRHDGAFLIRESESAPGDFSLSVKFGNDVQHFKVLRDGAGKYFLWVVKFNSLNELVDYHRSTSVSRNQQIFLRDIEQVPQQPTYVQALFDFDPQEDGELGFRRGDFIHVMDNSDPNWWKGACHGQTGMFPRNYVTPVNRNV

Sequence | SH2 binding enrichment (Grb2 SH2) | SH2 binding enrichment (SHP2-C SH2) | SH2 binding enrichment (c-Src SH2) | phosphorylation enrichment (Fyn) | phosphorylation enrichment (c-Abl (mouse)) | phosphorylation enrichment (FGFR3) | phosphorylation enrichment (FGFR1) | phosphorylation enrichment (EPHB2) | phosphorylation enrichment (Fer (mouse)) | phosphorylation enrichment (MERTK) | phosphorylation enrichment (Fes) | phosphorylation enrichment (c-Src) | phosphorylation enrichment (AncSZ) | phosphorylation enrichment (Hck) | phosphorylation enrichment (EPHB1) | phosphorylation enrichment (Jak2)
SKGFAYVHFDS [PABPC5_Y149_YF] | 1.02 | 1.29 | 1.96 | 0.381 | 0.681 | 0.584 | 0.393 | 0.466 | 0.408 | 0.378 | 0.871 | 0.314 | 0.814 | 0.378 | 0.477 | 0.832
SKLTIYDARPS [MTM1_Y277] | 0.792 | 0.595 | 0.466 | 2.4 | 0.593 | 0.751 | 0.606 | 0.737 | 0.484 | 0.825 | 1.17 | 2.05 | 0.779 | 7.23 | 0.629 | 0.655
SLEKGYELPDG [ACTC1_Y242_S241G] | 0.832 | 0.847 | 5.21 | 0.49 | 0.6 | 0.545 | 0.438 | 0.499 | 0.436 | 0.35 | 0.909 | 0.368 | 0.994 | 0.488 | 0.475 | 0.756
SLGKGYSVGGC [MC4R_Y35_D37V] | 0.888 | 0.867 | 0.517 | 0.432 | 0.593 | 0.627 | 0.456 | 0.501 | 0.484 | 0.354 | 0.898 | 0.384 | 0.724 | 0.434 | 0.523 | 0.846
SLIDGYFRLTE [JAK2_Y372_A377E_YF] | 0.784 | 6.41 | 1.85 | 0.456 | 0.867 | 0.715 | 0.553 | 0.436 | 0.545 | 0.542 | 1.08 | 0.446 | 1.07 | 0.442 | 0.571 | 4.29
SLIDGYYRLTE [JAK2_Y372_A377E] | 0.843 | 1.21 | 2.49 | 0.427 | 0.533 | 0.997 | 1.11 | 0.531 | 0.425 | 0.441 | 1.1 | 0.639 | 1.17 | 0.583 | 0.521 | 5.79
SLIERYEPSET [PLCD1_Y258] | 1 | 0.62 | 0.759 | 0.502 | 0.717 | 0.678 | 0.661 | 0.602 | 0.574 | 0.727 | 1.1 | 0.497 | 1.07 | 0.54 | 0.742 | 0.966
SMVVPYEPPEV [TP53_Y220_V216M] | 0.892 | 0.659 | 0.769 | 0.462 | 0.852 | 0.81 | 0.45 | 0.625 | 0.617 | 0.465 | 1.33 | 0.526 | 1.11 | 0.407 | 0.592 | 1.3
SNPAYYVLEGV [INPPL1_Y987_N982S] | 0.891 | 1.19 | 3.28 | 1.25 | 0.538 | 12.1 | 15.1 | 0.609 | 0.515 | 7.46 | 0.921 | 1.21 | 1 | 0.917 | 0.769 | 4
SNSAAYSGSVA [PDLIM5_Y382_T381A] | 0.774 | 0.559 | 0.481 | 0.404 | 0.697 | 0.421 | 0.33 | 0.393 | 0.343 | 0.381 | 0.566 | 0.409 | 0.512 | 0.354 | 0.398 | 0.636
SPFAVYRFFTF [RPGRIP1_Y826_YF] | 0.689 | 0.729 | 0.462 | 0.68 | 0.961 | 0.798 | 0.637 | 0.519 | 0.496 | 0.45 | 1.33 | 0.91 | 1.22 | 0.867 | 0.501 | 1.08
SPGGDYAAMGA [ERBB3_Y1276_G1271S] | 0.749 | 0.487 | 1.03 | 0.484 | 0.622 | 0.609 | 0.705 | 0.901 | 0.456 | 0.476 | 0.861 | 0.445 | 0.7 | 0.455 | 1.52 | 0.708
SPPPAFTPMSG [ERBB4_Y1056_Y1056F] | 0.67 | 0.615 | 0.364 | 0.305 | 0.45 | 0.465 | 0.402 | 0.416 | 0.439 | 0.461 | 0.441 | 0.442 | 0.597 | 0.469 | 0.349 | 0.496
SQSKGYRPKLF [SIPA1L3_Y1376_G1371S_YF] | 0.852 | 0.498 | 0.528 | 0.417 | 0.478 | 0.42 | 0.433 | 0.32 | 0.368 | 0.458 | 0.549 | 0.435 | 0.503 | 0.41 | 0.415 | 0.5
SRDTCYLVLAV [AMH_Y195_R194C] | 0.752 | 0.616 | 0.453 | 0.555 | 1.06 | 1.12 | 0.786 | 0.684 | 0.62 | 0.552 | 1.48 | 0.666 | 1.52 | 0.651 | 0.719 | 1.4
SSYDIYHLSRE [KIR3DL2_Y253] | 0.842 | 0.816 | 0.73 | 13 | 1.18 | 2.01 | 2.73 | 3.54 | 1.74 | 6.05 | 0.851 | 9.33 | 1.27 | 12.2 | 2.42 | 0.724
STEEQYRIRQV [EFHC1_Y115] | 0.802 | 0.738 | 0.609 | 0.475 | 0.43 | 0.554 | 0.425 | 0.416 | 0.375 | 0.345 | 0.589 | 0.331 | 0.718 | 0.41 | 0.314 | 0.516

Sequence | SH2 binding enrichment (Grb2 SH2) | SH2 binding enrichment (SHP2-C SH2) | SH2 binding enrichment (c-Src SH2) | phosphorylation enrichment (Fyn) | phosphorylation enrichment (c-Abl (mouse)) | phosphorylation enrichment (FGFR3) | phosphorylation enrichment (FGFR1) | phosphorylation enrichment (EPHB2) | phosphorylation enrichment (Fer (mouse)) | phosphorylation enrichment (MERTK) | phosphorylation enrichment (Fes) | phosphorylation enrichment (c-Src) | phosphorylation enrichment (AncSZ) | phosphorylation enrichment (Hck) | phosphorylation enrichment (EPHB1) | phosphorylation enrichment (Jak2)
STGSRYQPLAS [NCAPD2_Y1325] | 0.826 | 0.651 | 0.486 | 0.433 | 0.505 | 0.494 | 0.42 | 0.435 | 0.423 | 0.549 | 0.609 | 0.423 | 0.474 | 0.414 | 0.424 | 0.596
SVTCTYSAALN [TP53_Y126_P128A] | 0.686 | 0.654 | 0.395 | 0.657 | 0.947 | 0.929 | 0.552 | 0.803 | 0.552 | 0.62 | 1.72 | 0.836 | 1.31 | 0.679 | 0.876 | 1.41
SVTCTYSPALF [TP53_Y126_N131Y_YF] | 0.795 | 0.685 | 0.422 | 0.837 | 1.05 | 1.17 | 0.542 | 0.694 | 0.727 | 0.479 | 1.74 | 1 | 1.51 | 0.695 | 0.872 | 1.52
SVVVPYERPEV [TP53_Y220_P222R] | 0.889 | 0.57 | 1.12 | 0.475 | 0.731 | 0.627 | 0.495 | 0.513 | 0.51 | 0.401 | 0.988 | 0.432 | 0.958 | 0.502 | 0.439 | 0.846
SWKRRYFLLRA [APBB1IP_Y331] | 0.639 | 0.689 | 0.394 | 0.564 | 0.637 | 0.655 | 0.614 | 0.58 | 0.565 | 0.759 | 0.631 | 0.713 | 0.727 | 0.943 | 0.595 | 0.609
SYSGEYGGGGG [ZG16_Y30] | 0.784 | 0.635 | 0.495 | 0.485 | 0.433 | 0.552 | 0.53 | 0.452 | 0.444 | 0.439 | 0.685 | 0.385 | 0.604 | 0.525 | 0.398 | 0.4
TDEFEYDELIV [TGM1_Y136_YF] | 0.938 | 0.859 | 0.563 | 1.59 | 0.91 | 2.03 | 1.69 | 2.23 | 0.61 | 0.622 | 2.77 | 0.716 | 2.29 | 1.56 | 1.12 | 1.34
TFRPPYFHRNC [HGD_Y333_YF] | 1.1 | 1.41 | 1.09 | 0.473 | 0.635 | 0.771 | 0.617 | 0.946 | 0.626 | 1.03 | 0.869 | 0.454 | 0.733 | 0.661 | 0.522 | 0.717
TFTVSYLPDMS [FLNC_Y1602_YF] | 0.792 | 0.799 | 0.594 | 0.495 | 0.835 | 0.735 | 0.607 | 0.599 | 0.436 | 0.442 | 1.28 | 0.478 | 1.08 | 0.48 | 0.631 | 0.975
TFYQMYDKGLV [IARS2_Y231] | 0.941 | 1.29 | 0.838 | 3.3 | 0.91 | 1.25 | 0.986 | 3.66 | 1.33 | 7.11 | 0.916 | 3.71 | 1.38 | 3.46 | 2.49 | 0.797
TGQEEYSAMRD [KRAS_Y64_A59T] | 0.838 | 0.704 | 0.639 | 0.519 | 0.642 | 0.63 | 0.538 | 0.536 | 0.462 | 0.475 | 1 | 0.525 | 1.08 | 0.563 | 0.789 | 0.821
TLDTDYQMTKR [ADA_Y308] | 0.92 | 0.597 | 0.558 | 0.483 | 0.499 | 0.584 | 0.462 | 0.504 | 0.697 | 0.363 | 0.781 | 0.35 | 0.77 | 0.445 | 0.45 | 0.632
TLKDVYDDGKF [RPS6KA3_Y483_YF] | 0.781 | 0.566 | 0.433 | 0.548 | 0.549 | 0.66 | 0.614 | 0.513 | 0.488 | 0.515 | 1.04 | 0.625 | 0.988 | 0.66 | 0.542 | 0.655
TLKVGYKEKQR [EPHA3_Y659_T660K] | 0.919 | 1.14 | 1.02 | 0.333 | 0.547 | 0.555 | 0.348 | 0.366 | 0.358 | 0.37 | 0.699 | 0.334 | 0.367 | 0.328 | 0.45 | 0.812
TLLSAYQIPRT [GAB2_Y324_P320L] | 0.91 | 0.73 | 0.786 | 0.387 | 9.51 | 0.531 | 0.418 | 0.42 | 0.545 | 1.18 | 0.74 | 0.435 | 0.729 | 0.533 | 0.55 | 0.68
TLNHQYDFTFD [CSNK1A1_Y292_YF] | 0.844 | 0.701 | 8.5 | 0.507 | 0.705 | 0.653 | 0.57 | 0.543 | 0.543 | 0.6 | 1.07 | 0.485 | 1.22 | 0.495 | 0.553 | 0.989
